Source: patent publication US20190248888A1, “METHODS OF LOWERING BLOOD GLUCOSE LEVELS” (Regeneron Pharmaceuticals, Inc., priority 2016, published 2019)

Tested on: livers of mice
Test: RNAseq gene expression in liver of GCGR antibody treated mice
Assay type: in vivo, mouse
Conditions: 21 days
Protocol: All procedures were conducted in compliance with protocols approved by the Institutional Animal Care and Use Committee of Regeneron Pharmaceuticals. The in vitro and in vivo characteristics of REGN1193 (H4H1327P), a potent monoclonal GCGR blocking antibody has been previously described (See U.S. Pat. No. 8,545,847). This antibody was used as the exemplary glucagon signaling pathway antagonist in all studies in this report (See the HVCR/LCVR amino acid sequence pair of SEQ ID NOs: 86/88 in the present application. See also the corresponding heavy chain complementarity determining regions (HCDRs 1-2-3 of SEQ ID NOs: 72-74-76) and the corresponding light chain complementarity determining regions (LCDRs 1-2-3 of SEQ ID NOs: 80-82-84). The GCGR antibody and isotype control antibody were diluted with sterile PBS.
Total RNA was purified from all samples using MagMAX™-96 for Microarrays Total RNA Isolation Kit (Ambion by Life Technologies) according to manufacturer's specifications. Genomic DNA was removed using MagMAX™Turbo™DNase Buffer and TURBO DNase from the MagMAX kit listed above (Ambion by Life Technologies). mRNA was purified from total RNA using Dynabeads® mRNA Purification Kit (Invitrogen). Strand-specific RNA-seq libraries were prepared using ScriptSeq™ mRNA-Seq Library Preparation Kit (Epicentre). Twelve-cycle PCR was performed to amplify libraries. Sequencing was performed on Illumina HiSeq®2000 (Illumina) by multiplexed single-read run with 33 cycles.
Raw sequence data (BCL files) were converted to FASTQ format via Illumina Casava 1.8.2. Reads were decoded based on their barcodes and read quality was evaluated with FastQC (http://www.bioinformatics.babraham.ac.uk/projects/fastqc/). Reads were mapped to the mouse transcriptome (NCBI GRCh37) using CLC Genomics Workbench Version 7.0 (CLCbio) or TopHat2 (Version 2.0.10) allowing two mismatches. Reads mapped to the exons of a gene were summed at the gene level. To identify differentially expressed genes, the statistical significance (p-value) of the differential expressions was assessed with DESeq package (version 1.6 or 2.0).
A key role of glucagon is to promote the uptake and metabolism of amino acids in the liver to provide gluconeogenic precursors. To further explore this pathway, a recently described fully human GCGR-blocking antibody (Okamato et al, 2015, Endocrinol. 156:2781-2794; See also, U.S. Pat. No. 8,545,847) derived using VelocImmune technology (Macdonald et al., 2014, PNAS 111:5147-5152; Murphy et al., 2014, PNAS 111:5153-5158) was used in the experiments provided herein. […] As shown previously (Mu et al., 2012, PLOS ONE 7:349572; Okamoto et al., 2015, Endocrinol. 156:2781-2794; Solloway et al., 2015, Cell Reports 12:495-510), and confirmed later in this study, these findings provide a mechanism for the elevated circulating amino acid levels that are observed in mice and monkeys with impaired GCGR signaling.

[1] = liver of mice, 15 mg/kg α-GCGR vs control antibody

B1: α-GCGR: potent monoclonal GCGR blocking antibody, HCVR/LCVR SEQ ID NOs: 86/88 (antibody, V domains shown)
VH: EVQLVESGGGLVQPGGSLRLSCAASGFTFSNYLMNWVRQAPGKGLEWLANIQEDGIEKYYVDSVKGRFTISRDNAKNSLYLQMNSLRAEDTAVYYCAREPSHYDILTGYDYYYGMDVWGQGTTVTVS
VL: DIQMTQSPSSLSASVGDRVTITCRASQGIRNDLGWYQQKPGKAPKRLIYAASSLQSGVPSRFSGSGSGTEFILTVSSLQPEDFATYYCLQYNSNPFTFGPGTKVDIK
Aass Fold change [1]: −1.85
Abat Fold change [1]: −1.64
Acmsd Fold change [1]: −2.70
Agxt Fold change [1]: −2.17
Aldh4a1 Fold change [1]: −1.64
Aldoa Fold change [1]: −1.15
Arg1 Fold change [1]: −1.56
Asl Fold change [1]: −1.92
Ass1 Fold change [1]: −3.23
Bhmt Fold change [1]: −2.00
Cbs Fold change [1]: −1.85
Cps1 Fold change [1]: −1.96
Cth Fold change [1]: −3.12
Ddc Fold change [1]: −2.08
Eno1 Fold change [1]: −1.20
Fbp1 Fold change [1]: −1.67
G6pc Fold change [1]: −1.39
Gcat Fold change [1]: −1.67
Gldc Fold change [1]: −1.72
Gnmt Fold change [1]: −2.56
Got1 Fold change [1]: −8.33
Gpi1 Fold change [1]: 1.03
Gpt Fold change [1]: −1.72
Hgd Fold change [1]: −1.75
Hpd Fold change [1]: −1.92
Ivd Fold change [1]: −1.56
Lap3 Fold change [1]: −1.56
Mat1a Fold change [1]: −2.04
Mpst Fold change [1]: −1.61
Nags Fold change [1]: −1.67
Oat Fold change [1]: −6.67
Otc Fold change [1]: −1.12
Pah Fold change [1]: −1.75
Pck1 Fold change [1]: −1.82
Pgam1 Fold change [1]: −1.20
Pgk1 Fold change [1]: −1.16
Prodh Fold change [1]: −1.67
Sardh Fold change [1]: −1.75
Sds Fold change [1]: −3.23
Slc1a2 Fold change [1]: −1.25
Slc3a1 Fold change [1]: −1.72
Slc3a2 Fold change [1]: −1.08
Slc6a9 Fold change [1]: 1.45
Slc7a2 Fold change [1]: −2.27
Slc15a3 Fold change [1]: −1.12
Slc15a4 Fold change [1]: −1.15
Slc16a10 Fold change [1]: −1.28
Slc17a8 Fold change [1]: 2.32
Slc25a12 Fold change [1]: 1.27
Slc25a13 Fold change [1]: −1.27
Slc25a15 Fold change [1]: −1.92
Slc25a22 Fold change [1]: −1.56
Slc36a1 Fold change [1]: −1.41
Slc36a4 Fold change [1]: −1.18
Slc38a2 Fold change [1]: −1.08
Slc38a3 Fold change [1]: −1.75
Slc38a4 Fold change [1]: −1.56
Slc38a6 Fold change [1]: −1.09
Slc38a7 Fold change [1]: 1.05
Slc38a9 Fold change [1]: 1.17
Slc38a10 Fold change [1]: −1.04
Slc43a1 Fold change [1]: −2.78
Tat Fold change [1]: −4.35
Tpi1 Fold change [1]: −1.14
pcx Fold change [1]: −1.15
Aass expression RPKM (liver of mice, 15 mg/kg α-GCGR): 60.38 RPKM
Abat expression RPKM (liver of mice, 15 mg/kg α-GCGR): 43.18 RPKM
Acmsd expression RPKM (liver of mice, 15 mg/kg α-GCGR): 3.90 RPKM
Agxt expression RPKM (liver of mice, 15 mg/kg α-GCGR): 111.91 RPKM
Aldh4a1 expression RPKM (liver of mice, 15 mg/kg α-GCGR): 64.72 RPKM
Aldoa expression RPKM (liver of mice, 15 mg/kg α-GCGR): 16.24 RPKM
Arg1 expression RPKM (liver of mice, 15 mg/kg α-GCGR): 969.96 RPKM
Asl expression RPKM (liver of mice, 15 mg/kg α-GCGR): 151.51 RPKM
Ass1 expression RPKM (liver of mice, 15 mg/kg α-GCGR): 190.00 RPKM
Bhmt expression RPKM (liver of mice, 15 mg/kg α-GCGR): 98.73 RPKM
Cbs expression RPKM (liver of mice, 15 mg/kg α-GCGR): 126.52 RPKM
Cps1 expression RPKM (liver of mice, 15 mg/kg α-GCGR): 419.74 RPKM
Cth expression RPKM (liver of mice, 15 mg/kg α-GCGR): 139.77 RPKM
Ddc expression RPKM (liver of mice, 15 mg/kg α-GCGR): 15.03 RPKM
Eno1 expression RPKM (liver of mice, 15 mg/kg α-GCGR): 14.96 RPKM
Fbp1 expression RPKM (liver of mice, 15 mg/kg α-GCGR): 365.35 RPKM
G6pc expression RPKM (liver of mice, 15 mg/kg α-GCGR): 40.65 RPKM
Gcat expression RPKM (liver of mice, 15 mg/kg α-GCGR): 18.88 RPKM
Gldc expression RPKM (liver of mice, 15 mg/kg α-GCGR): 33.42 RPKM
Gnmt expression RPKM (liver of mice, 15 mg/kg α-GCGR): 449.55 RPKM
Got1 expression RPKM (liver of mice, 15 mg/kg α-GCGR): 9.98 RPKM
Gpi1 expression RPKM (liver of mice, 15 mg/kg α-GCGR): 16.58 RPKM
Gpt expression RPKM (liver of mice, 15 mg/kg α-GCGR): 103.74 RPKM
Hgd expression RPKM (liver of mice, 15 mg/kg α-GCGR): 109.59 RPKM
Hpd expression RPKM (liver of mice, 15 mg/kg α-GCGR): 874.17 RPKM
Ivd expression RPKM (liver of mice, 15 mg/kg α-GCGR): 51.86 RPKM
Lap3 expression RPKM (liver of mice, 15 mg/kg α-GCGR): 108.58 RPKM
Mat1a expression RPKM (liver of mice, 15 mg/kg α-GCGR): 525.98 RPKM
Mpst expression RPKM (liver of mice, 15 mg/kg α-GCGR): 17.32 RPKM
Nags expression RPKM (liver of mice, 15 mg/kg α-GCGR): 13.94 RPKM
Oat expression RPKM (liver of mice, 15 mg/kg α-GCGR): 66.76 RPKM
Otc expression RPKM (liver of mice, 15 mg/kg α-GCGR): 292.99 RPKM
Pah expression RPKM (liver of mice, 15 mg/kg α-GCGR): 232.16 RPKM
Pck1 expression RPKM (liver of mice, 15 mg/kg α-GCGR): 490.87 RPKM
Pgam1 expression RPKM (liver of mice, 15 mg/kg α-GCGR): 2.12 RPKM
Pgk1 expression RPKM (liver of mice, 15 mg/kg α-GCGR): 1.91 RPKM
Prodh expression RPKM (liver of mice, 15 mg/kg α-GCGR): 89.26 RPKM
Sardh expression RPKM (liver of mice, 15 mg/kg α-GCGR): 122.51 RPKM
Sds expression RPKM (liver of mice, 15 mg/kg α-GCGR): 39.47 RPKM
Slc1a2 expression RPKM (liver of mice, 15 mg/kg α-GCGR): 14.89 RPKM
Slc3a1 expression RPKM (liver of mice, 15 mg/kg α-GCGR): 9.78 RPKM
Slc3a2 expression RPKM (liver of mice, 15 mg/kg α-GCGR): 14.56 RPKM
Slc6a9 expression RPKM (liver of mice, 15 mg/kg α-GCGR): 10.29 RPKM
Slc7a2 expression RPKM (liver of mice, 15 mg/kg α-GCGR): 67.24 RPKM
Slc15a3 expression RPKM (liver of mice, 15 mg/kg α-GCGR): 1.15 RPKM
Slc15a4 expression RPKM (liver of mice, 15 mg/kg α-GCGR): 5.47 RPKM
Slc16a10 expression RPKM (liver of mice, 15 mg/kg α-GCGR): 14.93 RPKM
Slc17a8 expression RPKM (liver of mice, 15 mg/kg α-GCGR): 4.18 RPKM
Slc25a12 expression RPKM (liver of mice, 15 mg/kg α-GCGR): 4.68 RPKM
Slc25a13 expression RPKM (liver of mice, 15 mg/kg α-GCGR): 76.40 RPKM
Slc25a15 expression RPKM (liver of mice, 15 mg/kg α-GCGR): 50.85 RPKM
Slc25a22 expression RPKM (liver of mice, 15 mg/kg α-GCGR): 14.40 RPKM
Slc36a1 expression RPKM (liver of mice, 15 mg/kg α-GCGR): 3.90 RPKM
Slc36a4 expression RPKM (liver of mice, 15 mg/kg α-GCGR): 1.34 RPKM
Slc38a2 expression RPKM (liver of mice, 15 mg/kg α-GCGR): 17.59 RPKM
Slc38a3 expression RPKM (liver of mice, 15 mg/kg α-GCGR): 285.49 RPKM
Slc38a4 expression RPKM (liver of mice, 15 mg/kg α-GCGR): 261.42 RPKM
Slc38a6 expression RPKM (liver of mice, 15 mg/kg α-GCGR): 1.72 RPKM
Slc38a7 expression RPKM (liver of mice, 15 mg/kg α-GCGR): 4.41 RPKM
Slc38a9 expression RPKM (liver of mice, 15 mg/kg α-GCGR): 1.48 RPKM
Slc38a10 expression RPKM (liver of mice, 15 mg/kg α-GCGR): 19.58 RPKM
Slc43a1 expression RPKM (liver of mice, 15 mg/kg α-GCGR): 0.83 RPKM
Tat expression RPKM (liver of mice, 15 mg/kg α-GCGR): 197.67 RPKM
Tpi1 expression RPKM (liver of mice, 15 mg/kg α-GCGR): 46.09 RPKM
pcx expression RPKM (liver of mice, 15 mg/kg α-GCGR): 68.44 RPKM
expression of genes involved in amino acid metabolism, urea cycle and gluconeogenesis (livers of mice, 15 mg/kg): reduced expression
expression of mitochondrial amino acid transporters Slc25a15 and Slc25a22 (livers of mice, 15 mg/kg): significantly reduced
reduction of expression of plasma membrane amino acid transporters Slc38a3, Slc38a4, Slc7a2 and Slc3a1 (livers of mice, 15 mg/kg): 30-50%
